Where only a bound is given, the exact number is not on record here.

The record followed here is US6933142 (University of California, dated 2005).

The target of assay [1] is CD34 on CHO/FTVII/C2GnT cells cotransfected with KSGal6ST cDNA. The assay is described as follows: flow cytometry; CHO/FTVII/C2GnT cells with CD34 (2 µg) and 1.5 µg KSGal6ST cDNA. A general note: A flow cytometer gives signals particle by particle.
Assay [2] addresses CD34 on CHO/FTVII/C2GnT cells cotransfected with HEC-GlcNAc6ST cDNA. The assay is described as follows: flow cytometry; CHO/FTVII/C2GnT cells with CD34 (2 µg) and 1 µg HEC-GlcNAc6ST cDNA.
The target in assay [3] is CD34 on CHO/FTVII/C2GnT cells cotransfected with KSGal6ST and HEC-GlcNAc6ST cDNAs. The experiment in a line: flow cytometry; CHO/FTVII/C2GnT cells with CD34 (2 µg), 1 µg KSGal6ST and 0.5 µg HEC-GlcNAc6ST cDNA.
CD34 on CHO/FTVII/C2GnT cells cotransfected with KSGal6ST and HEC-GlcNAc6ST cDNAs, sequence (P28906 32-385): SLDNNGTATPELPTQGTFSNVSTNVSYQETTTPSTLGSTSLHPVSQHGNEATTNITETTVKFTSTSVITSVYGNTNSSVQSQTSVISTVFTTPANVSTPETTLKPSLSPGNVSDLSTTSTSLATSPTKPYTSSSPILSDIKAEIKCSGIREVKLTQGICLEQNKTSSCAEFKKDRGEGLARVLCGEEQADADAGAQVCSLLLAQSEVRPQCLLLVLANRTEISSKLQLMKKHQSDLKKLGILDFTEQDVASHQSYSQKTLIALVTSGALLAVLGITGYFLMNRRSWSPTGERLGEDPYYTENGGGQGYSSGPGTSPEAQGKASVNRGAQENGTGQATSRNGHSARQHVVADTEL
In assay [4] the target is CD34 on CHO/FTVII/C2GnT cells, no sulfotransferase cDNA. The experiment in a line: flow cytometry; CHO/FTVII/C2GnT cells with CD34 cDNA alone.
CD34 on CHO/FTVII/C2GnT cells, no sulfotransferase cDNA, sequence (P28906 32-385): as above
Assay [5] concerns the target CD34 on CHO/FTVII/C2GnT cells cotransfected with KSGal6ST and HEC-GlcNAc6ST cDNAs. The experiment in a line: flow cytometry; CHO/FTVII/C2GnT cells with CD34 (2 µg), 0.5 µg KSGal6ST and 0.5 µg HEC-GlcNAc6ST cDNA.
In assay [6] the target is CD34 on CHO/FTVII/C2GnT cells cotransfected with KSGal6ST cDNA. The experiment in a line: flow cytometry; CHO/FTVII/C2GnT cells with CD34 (2 µg) and 1.0 µg KSGal6ST cDNA.
For assay [7], the target named is CD34 on CHO/FTVII/C2GnT cells cotransfected with HEC-GlcNAc6ST cDNA. The assay is described as follows: flow cytometry; CHO/FTVII/C2GnT cells with CD34 (2 µg) and 1.5 µg HEC-GlcNAc6ST cDNA.
CD34 on CHO/FTVII/C2GnT cells cotransfected with HEC-GlcNAc6ST cDNA, sequence (P28906 32-385): as above
The target of assay [8] is CD34 on CHO/FTVII/C2GnT cells cotransfected with KSGal6ST and HEC-GlcNAc6ST cDNAs. The experiment in a line: flow cytometry; CHO/FTVII/C2GnT cells with CD34 (2 µg), 0.5 µg KSGal6ST and 1.0 µg HEC-GlcNAc6ST cDNA.
Assay [9] concerns the target L-selectin on Jurkat cells (UniProt P14151). The experiment in a line: cell-based or functional assay.
Assay [10] deals with T1, rGlyCAM-1/IgG FT KSGal6ST (human, UniProt Q02596 20-151 (mouse entry), limits assumed, glycans made in COS cells co-transfected with C2GnT, FucT-VII and KSGal6ST (fucosylated, Gal-6-sulfate)).
T1 sequence (looked up): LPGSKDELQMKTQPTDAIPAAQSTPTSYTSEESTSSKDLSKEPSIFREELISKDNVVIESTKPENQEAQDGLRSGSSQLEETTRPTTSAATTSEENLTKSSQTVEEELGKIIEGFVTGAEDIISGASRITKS
The assay is described as follows: cell-based or functional assay.

The target of assay [11] is T2, rGlyCAM-1/IgG FT huGlcNAc6ST (human, UniProt Q02596 20-151 (mouse entry), limits assumed, glycans made in COS cells co-transfected with C2GnT, FucT-VII and huGlcNAc6ST (fucosylated, GlcNAc-6-sulfate)).
T2 sequence (looked up): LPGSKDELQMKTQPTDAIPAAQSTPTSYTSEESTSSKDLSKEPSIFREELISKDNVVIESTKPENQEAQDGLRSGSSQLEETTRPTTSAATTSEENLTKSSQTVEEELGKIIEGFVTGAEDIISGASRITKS
The assay is described as follows: cell-based or functional assay.

The target in assay [12] is T3, rGlyCAM-1/IgG FT HEC-GlcNAc6ST (human, UniProt Q02596 20-151 (mouse entry), limits assumed, glycans made in COS cells co-transfected with C2GnT, FucT-VII and HEC-GlcNAc6ST (fucosylated, GlcNAc-6-sulfate)).
T3 sequence (looked up): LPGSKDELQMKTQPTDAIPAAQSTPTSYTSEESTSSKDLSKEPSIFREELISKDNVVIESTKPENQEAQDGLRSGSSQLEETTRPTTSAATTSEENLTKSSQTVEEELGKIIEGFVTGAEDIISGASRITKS
The assay is described as follows: cell-based or functional assay.

The target in assay [13] is T4, rGlyCAM-1/IgG (human, UniProt Q02596 20-151 (mouse entry), limits assumed, not fucosylated by FucT-VII, no sulfotransferase co-transfected).
T4 sequence (looked up): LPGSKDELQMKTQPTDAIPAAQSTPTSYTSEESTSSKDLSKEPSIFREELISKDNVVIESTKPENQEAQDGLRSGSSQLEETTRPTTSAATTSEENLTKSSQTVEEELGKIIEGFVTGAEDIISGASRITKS
The assay is described as follows: cell-based or functional assay.

CD34 on CHO/FTVII/C2GnT cells cotransfected with KSGal6ST cDNA, sequence (P28906 32-385): as the sequence (P28906 32-385) above

Turning to “L-selectin/IgM chimera (from UniProt P18337 39-332; P01871 106-453) (Fc fusion)”, the MFI (background subtracted) turned out to be 391 MFI in [1]; 114 MFI in assay [2]; 917 MFI in assay [3]; 935 MFI in [5]; 364 MFI in assay [6]; 163 MFI in assay [7]. The MFI (background subtracted) in [8] was determined as 830 MFI. This molecule returned an MFI (background signal) in assay [4] of 139 MFI.
The molecule DREG56 (antibody) came in with a Rolling of Jurkat cells on rGlyCAM-1/IgG FT after treatment with 5 µg/ml DREG56 (rolling cells) in [9] of 0.

B1: L-selectin on Jurkat cells (receptor, UniProt P14151 39-372, looked up)
chain: WTYHYSEKPMNWQRARRFCRDNYTDLVAIQNKAEIEYLEKTLPFSRSYYWIGIRKIGGIWTWVGTNKSLTEEAENWGDGEPNNKKNKEDCVEIYIKRNKDAGKWNDDACHKLKAALCYTASCQPWSCSGHGECVEIINNYTCNCDVGYYGPQCQFVIQCEPLEAPELGTMDCTHPLGNFSFSSQCAFSCSEGTNLTGIEETTCGPFGNWSSPEPTCQVIQCEPLSAPDLGIMNCSHPLASFSFTSACTFICSEGTELIGKKKTICESSGIWSNPSPICQKLDKSFSMIKEGDYNPLFIPVAVMVTAFSGLAFIIWLARRLKKGKKSKRSMNDPY
As to B1, the entries for the “fraction of tethered cells relative to non-sulfated GlyCAM-1/IgG (FT)” value in [10], in assay [11] and in assay [12] were 6 fold, 2 fold and 2 fold, respectively.

B2: human HEC-GlcNAc6ST (enzyme)
chain: MLLPKKMKLLLFLVSQMAILALFFHMYSHNISSLSMKAQPERMHVLVLSSWRSGSSFVGQLFGQHPDVFYLMEPAWHVWMTFKQSTAWMLHMAVRDLIRAVFLCDMSVFDAYMEPGPRRQSSLFQWENSRALCSAPACDIIPQDEIIPRAHCRLLCSQQPFEVVEKACRSYSHVVLKEVRFFNLQSLYPLLKDPSLNLHIVHLVRDPRAVFRSRERTKGDLMIDSRIVMGQHEQKLKKEDQPYYVMQVICQSQLEIYKTIQSLPKALQERYLLVRYEDLARAPVAQTSRMYEFVGLEFLPHLQTWVHNITRGKGMGDHAFHTNARDALNVSQAWRWSLPYEKVSRLQKACGDAMNLLGYRHVRSEQEQRNLLLDLLSTWTVPEQIH
As for B2, the “incorporation of ^35S-SO4 into the GlyCAM-1 chimera in co-transfected COS cells” value in assay [13] is above 10 fold.
